Results as given in article PMC9712074.

Biological target: SA58 (BD55-5840), human IgG1 (human)
Assay: SPR

SARS-CoV-2 (BA.4/BA.5) Spike RBD Protein (His Tag) (from UniProt P0DTC2) (domain or fragment)
Kd: 0.96 nM
